Experimental data reported in publication PMC3477848 (Biochemistry, 2012).
Where two headings read alike, the source gives them in different places.

T1: Dpo4 (SsoDpo4, Y-family DNA polymerase) (Sulfolobus solfataricus, UniProt Q97W02 1-352)
T1 sequence: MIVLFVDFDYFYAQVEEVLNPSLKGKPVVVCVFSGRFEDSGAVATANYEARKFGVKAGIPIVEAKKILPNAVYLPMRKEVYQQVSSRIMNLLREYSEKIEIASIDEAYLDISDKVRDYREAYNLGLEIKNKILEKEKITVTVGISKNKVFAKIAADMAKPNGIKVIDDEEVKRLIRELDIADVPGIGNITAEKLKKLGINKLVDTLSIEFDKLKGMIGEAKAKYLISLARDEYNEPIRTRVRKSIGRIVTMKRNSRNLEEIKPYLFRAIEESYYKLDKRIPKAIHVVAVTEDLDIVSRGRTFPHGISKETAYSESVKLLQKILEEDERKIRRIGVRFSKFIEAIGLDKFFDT

B1: Dpo4, wild-type untagged, Y-family lesion bypass (repair) DNA polymerase of Sulfolobus solfataricus (enzyme)
chain: T1 sequence

Key:
[1] = target: the molecule itself; assay: cross-linking
[2] = target: T1, Dpo4 (SsoDpo4, Y-family DNA polymerase); assay: ITC
[3] = target: T1, Dpo4 (SsoDpo4, Y-family DNA polymerase); assay: ITC; remark: listed apart in the source

Row | Binder | stoichiometry N [1] | Ka [2] | Ka [3]
1 | B1 | 2 |  | 
2 | TTTTTTTTTTCCCGGGCCGGCGTTTCGCCGGCCCGGG (structured_DNA) [37-nt hairpin primer-template, unlabeled] |  | 652000 M⁻¹ | 2.23e+06 M⁻¹
